According to article PMC7611554:
pKd: −log10 of the molar value.

Target: SNAP-LepR:EGFR complex (UniProt P48356)
Assay: FRET or BRET

Substance EGF-d2 (ligand) has a pKd of 8.68.
